First the molecules themselves.
B2: Ect2-BRCT (1–421), soluble, CBD removed by TEV (domain or fragment, UniProt Q9H8V3-4 1-421, looked up)
chain: MAENSVLTSTTGRTSLADSSIFDSKVTEISKENLLIGSTSYVEEEMPQIETRVILVQEAGKQEELIKALKDIKVGFVKMESVEEFEGLDSPEFENVFVVTDFQDSVFNDLYKADCRVIGPPVVLNCSQKGEPLPFSCRPLYCTSMMNLVLCFTGFRKKEELVRLVTLVHHMGGVIRKDFNSKVTHLVANCTQGEKFRVAVSLGTPIMKPEWIYKAWERRNEQDFYAAVDDFRNEFKVPPFQDCILSFLGFSDEEKTNMEEMTEMQGGKYLPLGDERCTHLVVEENIVKDLPFEPSKKLYVVKQEWFWGSIQMDARAGETMYLYEKANTPELKKSVSMLSLNTPNSNRKRRRLKETLAQLSRETDVSPFPPRKRPSAEHSLSIGSLLDISNTPESSINYGDTPKSCTKSSKSSTPVPSKQSA
notes: Ect2 N terminus with the BRCT repeats, residues 1–421; the printed UniProt entry is the human protein; also called soluble Ect2-BRCT; source: E. coli BL21 (DE3) RIL, purified on chitin beads, eluted by TEV cleavage

Experiment [1] deals with Ect2 Ect2-BRCT, 1-421 (UniProt Q9H8V3). Description: CBD bead pull-down, Coomassie. The conditions noted are these: reference: 4A without Plk1.
Experiment [2] has the same target. In words: CBD bead pull-down, Coomassie or blot. The conditions noted are these: reference: HsCyk-4-Nt without Plk1; sites S149,S157,S164,S170.
Experiment [3] addresses B2. In words: pull-down; 100 nM CBD fusion on chitin beads, with or without 50 nM Plk1-T210D 1–306 and ATP (60 min, 30°C), washed; soluble partner added at equimolar amounts; 20 mM HEPES pH 7.2, 150 mM NaCl, 5 mM MgCl2, 1 mM DTT, 0.1% Triton X-100; 90 min at 4°C; Coomassie staining or Western blot. The conditions noted are these: both partners purified.
The target in experiment [4] is T1, CBD–HsCyk-4-Nt-4A (1–288), incubated with Plk1, immobilised (UniProt Q9H0H5 1-288, Ser149 to Ala | Ser157 to Ala | Ser164 to Ala | Ser170 to Ala, incubated with Plk1-T210D (1–306) and ATP; remaining phosphorylation sites not stated).
T1 construct: HsCyk-4/MgcRacGAP N terminus, residues 1–288, four serines changed to alanine; also called HsCyk-4-4A; source: E. coli BL21 (DE3) RIL, purified on chitin beads, incubated on the beads with Plk1-T210D 1–306 and ATP
T1 sequence (looked up): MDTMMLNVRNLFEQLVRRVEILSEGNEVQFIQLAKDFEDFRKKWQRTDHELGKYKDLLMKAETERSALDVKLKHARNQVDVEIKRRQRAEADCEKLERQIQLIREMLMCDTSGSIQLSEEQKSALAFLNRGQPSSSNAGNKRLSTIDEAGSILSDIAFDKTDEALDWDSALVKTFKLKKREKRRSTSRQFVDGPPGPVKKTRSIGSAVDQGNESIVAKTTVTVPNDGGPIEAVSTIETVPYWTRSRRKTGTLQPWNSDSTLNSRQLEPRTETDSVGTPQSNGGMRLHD
The experiment is described as above. The note with it: both partners purified.

Experiment [5] has as its target T2, CBD–HsCyk-4-Nt-4D (1–288), incubated with Plk1, immobilised (UniProt Q9H0H5 1-288, Ser149 to Asp | Ser157 to Asp | Ser164 to Asp | Ser170 to Asp, incubated with Plk1-T210D (1–306) and ATP; remaining phosphorylation sites not stated).
T2 construct: HsCyk-4/MgcRacGAP N terminus, residues 1–288, four serines changed to aspartate; also called HsCyk-4-4D (with Plk1); source: E. coli BL21 (DE3) RIL, purified on chitin beads, incubated on the beads with Plk1-T210D 1–306 and ATP
T2 sequence (looked up): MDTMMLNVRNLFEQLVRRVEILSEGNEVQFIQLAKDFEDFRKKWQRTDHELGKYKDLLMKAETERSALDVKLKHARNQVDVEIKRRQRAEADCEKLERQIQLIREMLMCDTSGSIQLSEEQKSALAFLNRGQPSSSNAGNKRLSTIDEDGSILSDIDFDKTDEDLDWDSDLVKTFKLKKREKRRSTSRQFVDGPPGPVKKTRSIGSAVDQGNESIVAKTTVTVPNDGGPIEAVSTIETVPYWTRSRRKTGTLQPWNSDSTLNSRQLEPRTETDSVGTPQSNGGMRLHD
Described as above. The conditions noted are these: both partners purified.

The target in experiment [6] is T3, CBD–HsCyk-4-Nt (1–288) phosphorylated by Plk1, immobilised (UniProt Q9H0H5 1-288, phosphorylated in vitro by Plk1-T210D (1–306); Ser149, Ser157, Ser164 and Ser170 named as the sites).
T3 construct: HsCyk-4/MgcRacGAP N terminus, residues 1–288; the printed UniProt entry is the human protein; also called HsCyk-4-wt (with Plk1); source: E. coli BL21 (DE3) RIL, purified on chitin beads, phosphorylated on the beads with Plk1-T210D 1–306
T3 sequence (looked up): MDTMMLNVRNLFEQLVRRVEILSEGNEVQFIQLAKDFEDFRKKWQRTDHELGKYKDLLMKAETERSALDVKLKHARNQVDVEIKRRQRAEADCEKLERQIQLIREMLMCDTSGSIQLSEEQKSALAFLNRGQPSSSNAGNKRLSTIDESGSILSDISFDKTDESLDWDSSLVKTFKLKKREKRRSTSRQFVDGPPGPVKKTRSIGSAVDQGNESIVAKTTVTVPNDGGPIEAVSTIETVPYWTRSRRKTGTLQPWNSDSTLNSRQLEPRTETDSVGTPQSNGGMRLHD
The description is as above. The conditions noted are these: both partners purified.

The source of these data is PMC2680334, “Polo-Like Kinase 1 Directs Assembly of the HsCyk-4 RhoGAP/Ect2 RhoGEF Complex to Initiate Cleavage Furrow Formation” (PLoS Biology, 2009).

In the experiment with Ect2 Ect2-BRCT, 1-421 [1], “HsCyk-4/MgcRacGAP HsCyk-4-Nt, 1-288 (from UniProt Q9H0H5) 4A treated with Plk1 and ATP” yielded a fold change of 3.1 fold.

In turn, “HsCyk-4/MgcRacGAP HsCyk-4-Nt, 1-288 (from UniProt Q9H0H5) HsCyk-4-Nt treated with Plk1-T210D kinase domain and ATP” came in with a fold change in the experiment with Ect2 Ect2-BRCT, 1-421 [2] of 20.2 fold.

B1: CBD–HsCyk-4-Nt-4D (1–288), not incubated with Plk1, immobilised (domain or fragment, UniProt Q9H0H5 1-288, looked up)
chain: MDTMMLNVRNLFEQLVRRVEILSEGNEVQFIQLAKDFEDFRKKWQRTDHELGKYKDLLMKAETERSALDVKLKHARNQVDVEIKRRQRAEADCEKLERQIQLIREMLMCDTSGSIQLSEEQKSALAFLNRGQPSSSNAGNKRLSTIDEDGSILSDIDFDKTDEDLDWDSDLVKTFKLKKREKRRSTSRQFVDGPPGPVKKTRSIGSAVDQGNESIVAKTTVTVPNDGGPIEAVSTIETVPYWTRSRRKTGTLQPWNSDSTLNSRQLEPRTETDSVGTPQSNGGMRLHD
notes: HsCyk-4/MgcRacGAP N terminus, residues 1–288, four serines changed to aspartate; also called HsCyk-4-4D; source: E. coli BL21 (DE3) RIL, purified on chitin beads, kept on the beads
As for B1, in experiment [3], the binding result is listed as “binds”.

Consider B2, for which the “fold stimulation of binding upon Plk1 phosphorylation (against the protein without Plk1)” value was found to be 3.1 fold in experiment [4], 1.7 fold in experiment [5] and 20.2 fold in experiment [6].
